How the values were obtained:
HLA-B*15:01 [1] = experiment: IEDB peptide-MHC binding, purified MHC/direct/fluorescence; filed as Kd, often an IC50 or EC50 that approximates it; ≥ and ≤ were set here for values at or beyond the usual limits of such assays
HLA-B*15:02 = experiment: as above
HLA-B*46:01 = experiment: as above
HLA-A*01:01 [2] = experiment: IEDB peptide-MHC binding, purified MHC/competitive/fluorescence; ≥ and ≤ were set here for values at or beyond the usual limits of such assays
HLA-A*02:01 [3] = experiment: as above
HLA-B*48:01 = experiment: IEDB peptide-MHC binding, purified MHC/direct/fluorescence; filed as Kd, often an IC50 or EC50 that approximates it; ≥ and ≤ were set here for values at or beyond the usual limits of such assays; conditions: source organism: Campylobacter jejuni RM1221
HLA-A*01:01 [4] = experiment: as above
HLA-B*27:05 = experiment: as above
HLA-B*58:01 = experiment: as above
HLA-A*31:01 = experiment: as above
HLA-B*08:01 = experiment: as above
HLA-A*69:01 = experiment: as above
HLA-B*15:17 = experiment: as above
HLA-A*02:01 [5] = experiment: as above
HLA-B*07:02 = experiment: as above
HLA-B*73:01 = experiment: as above; conditions: source organism: Campylobacter jejuni RM1221
HLA-A*03:01 [6] = experiment: as above
HLA-A*68:02 = experiment: as above
HLA-B*18:01 [7] = experiment: as above; conditions: source organism: Campylobacter jejuni RM1221
HLA-B*57:01 = experiment: as above
HLA-A*11:01 [8] = experiment: IEDB peptide-MHC binding, purified MHC/competitive/fluorescence; filed as Kd, often an IC50 or EC50 that approximates it; ≥ and ≤ were set here for values at or beyond the usual limits of such assays; conditions: source organism: Campylobacter jejuni subsp. jejuni NCTC 11168 = ATCC 700819
HLA-B*40:01 = experiment: IEDB peptide-MHC binding, purified MHC/direct/fluorescence; filed as Kd, often an IC50 or EC50 that approximates it; ≥ and ≤ were set here for values at or beyond the usual limits of such assays; conditions: source organism: Vibrio parahaemolyticus
HLA-A*11:01 [9] = experiment: as above
HLA-B*44:02 = experiment: as above; conditions: source organism: Vibrio parahaemolyticus
HLA-A*26:01 = experiment: as above
HLA-A*80:01 = experiment: as above; conditions: source organism: Francisella tularensis subsp. holarctica LVS
HLA-C*08:02 = experiment: as above; conditions: source organism: Francisella tularensis subsp. tularensis FSC198
HLA-C*14:02 = experiment: IEDB peptide-MHC binding, purified MHC/competitive/fluorescence; filed as Kd, often an IC50 or EC50 that approximates it; ≥ and ≤ were set here for values at or beyond the usual limits of such assays; conditions: source organism: Francisella tularensis subsp. tularensis FSC198
HLA-B*83:01 = experiment: as above; conditions: source organism: Francisella tularensis subsp. tularensis FSC198
HLA-B*15:42 = experiment: as above; conditions: source organism: Francisella tularensis subsp. tularensis FSC198
HLA-C*04:01 = experiment: as above; conditions: source organism: Francisella tularensis subsp. tularensis FSC198
HLA-B*45:06 = experiment: as above; conditions: source organism: Francisella tularensis subsp. tularensis FSC198
HLA-A*24:03 = experiment: IEDB peptide-MHC binding, purified MHC/direct/fluorescence; filed as Kd, often an IC50 or EC50 that approximates it; ≥ and ≤ were set here for values at or beyond the usual limits of such assays; conditions: source organism: Mammarenavirus lassaense
HLA-A*24:02 [10] = experiment: as above; conditions: source organism: Mammarenavirus lassaense
HLA-A*26:02 = experiment: as above; conditions: source organism: Mammarenavirus lassaense
HLA-B*08:03 = experiment: as above; conditions: source organism: Mammarenavirus lassaense
HLA-A*23:01 = experiment: as above; conditions: source organism: Mammarenavirus lassaense
HLA-A*02:06 = experiment: IEDB peptide-MHC binding, purified MHC/competitive/fluorescence; filed as Kd, often an IC50 or EC50 that approximates it; ≥ and ≤ were set here for values at or beyond the usual limits of such assays; conditions: source organism: Mammarenavirus lassaense
HLA-B*18:01 [11] = experiment: as above; conditions: source organism: Mammarenavirus lassaense
HLA-B*15:01 [12] = experiment: IEDB peptide-MHC binding, purified MHC/competitive/fluorescence; ≥ and ≤ were set here for values at or beyond the usual limits of such assays; conditions: source organism: Zaire ebolavirus
HLA-A*11:01 [13] = experiment: as above; conditions: source organism: Zaire ebolavirus
HLA-A*24:02 [14] = experiment: as above; conditions: source organism: Zaire ebolavirus
HLA-A*03:01 [15] = experiment: as above; conditions: source organism: Zaire ebolavirus
HLA-A*02:01 [16] = experiment: IEDB peptide-MHC binding, cellular MHC/competitive/fluorescence; ≥ and ≤ were set here for values at or beyond the usual limits of such assays
HLA-B*35:01 = experiment: IEDB peptide-MHC binding, purified MHC/direct/fluorescence; filed as Kd, often an IC50 or EC50 that approximates it; ≥ and ≤ were set here for values at or beyond the usual limits of such assays; conditions: source organism: Burkholderia mallei ATCC 23344
[17] = source organism: Orthohantavirus hantanense
[18] = source organism: Campylobacter jejuni RM1221
[19] = source organism: Vibrio parahaemolyticus
[20] = source organism: Mammarenavirus lassaense
[21] = source organism: Zaire ebolavirus
[22] = source organism: Burkholderia mallei
[23] = source organism: Burkholderia mallei ATCC 23344

FQHERLGQF
Kd (HLA-B*15:01 [1]; [17]): 0.0204 µM
Kd (HLA-B*15:02; source organism: Hantaan virus Q32): 0.029 µM
Kd (HLA-B*46:01; [17]): 0.783 µM

KIDSMFLMT
IC50 (HLA-A*01:01 [2]; source organism: Variola virus): ≥ 104 µM
IC50 (HLA-A*02:01 [3]; source organism: Variola virus): 0.565 µM

AKYEICLEK
Kd (HLA-B*48:01): ≥ 20 µM
Kd (HLA-A*01:01 [4]; [18]): ≥ 20 µM
Kd (HLA-B*15:01 [1]; [18]): ≥ 20 µM
Kd (HLA-B*27:05; [18]): ≥ 20 µM
Kd (HLA-B*58:01; [18]): ≥ 20 µM
Kd (HLA-A*31:01; [18]): ≥ 20 µM
Kd (HLA-B*08:01; source organism: Campylobacter jejuni subsp. jejuni 81-176): ≥ 20 µM
Kd (HLA-A*69:01; [18]): ≥ 20 µM
Kd (HLA-B*15:17; [18]): ≥ 20 µM
Kd (HLA-A*02:01 [5]; [18]): ≥ 20 µM
Kd (HLA-B*07:02; [18]): ≥ 20 µM
Kd (HLA-B*73:01): ≥ 20 µM
Kd (HLA-A*03:01 [6]; [18]): ≥ 20 µM
Kd (HLA-A*68:02; [18]): ≥ 20 µM
Kd (HLA-B*18:01 [7]): ≥ 20 µM
Kd (HLA-B*57:01; [18]): ≥ 20 µM
Kd (HLA-A*11:01 [8]): ≥ 20 µM

VQGYERIMY
Kd (HLA-A*01:01 [4]; [19]): ≥ 20 µM
Kd (HLA-B*15:01 [1]; [19]): 0.271 µM
Kd (HLA-B*15:02; [19]): ≥ 20 µM
Kd (HLA-B*27:05; [19]): ≥ 20 µM
Kd (HLA-B*58:01; [19]): ≥ 20 µM
Kd (HLA-A*31:01; [19]): ≥ 20 µM
Kd (HLA-B*40:01): ≥ 20 µM
Kd (HLA-B*08:01; [19]): ≥ 20 µM
Kd (HLA-A*69:01; [19]): ≥ 20 µM
Kd (HLA-A*11:01 [9]; [19]): ≥ 20 µM
Kd (HLA-B*46:01; [19]): ≥ 20 µM
Kd (HLA-A*02:01 [5]; [19]): ≥ 20 µM
Kd (HLA-B*07:02; [19]): ≥ 20 µM
Kd (HLA-A*03:01 [6]; [19]): ≥ 20 µM
Kd (HLA-B*44:02): ≥ 20 µM
Kd (HLA-A*26:01; [19]): ≥ 20 µM

YTDKIAMSY
Kd (HLA-A*01:01 [4]; source organism: Francisella tularensis subsp. holarctica LVS): ≤ 0.001 µM
Kd (HLA-A*80:01): 0.0005 µM
Kd (HLA-C*08:02): 0.651 µM
Kd (HLA-C*14:02): 0.0684 µM
Kd (HLA-B*83:01): ≥ 5 µM
Kd (HLA-B*15:42): ≥ 5 µM
Kd (HLA-C*04:01): ≥ 5 µM
Kd (HLA-B*45:06): ≥ 5 µM

GYAWIDFDI
Kd (HLA-A*01:01 [4]; [20]): ≥ 20 µM
Kd (HLA-B*15:01 [1]; [20]): ≥ 20 µM
Kd (HLA-B*58:01; [20]): ≥ 20 µM
Kd (HLA-A*31:01; [20]): ≥ 20 µM
Kd (HLA-A*24:03): 0.0034 µM
Kd (HLA-B*08:01; [20]): ≥ 20 µM
Kd (HLA-B*15:17; [20]): ≥ 20 µM
Kd (HLA-A*11:01 [9]; [20]): ≥ 20 µM
Kd (HLA-A*02:01 [5]; [20]): ≥ 20 µM
Kd (HLA-A*24:02 [10]): 0.0037 µM
Kd (HLA-B*07:02; [20]): ≥ 20 µM
Kd (HLA-A*68:02; [20]): ≥ 20 µM
Kd (HLA-A*26:02): ≥ 20 µM
Kd (HLA-B*57:01; [20]): ≥ 20 µM
Kd (HLA-B*08:03): ≥ 20 µM
Kd (HLA-A*26:01; [20]): ≥ 20 µM
Kd (HLA-A*23:01): 0.0039 µM
Kd (HLA-A*02:06): ≥ 20 µM
Kd (HLA-B*18:01 [11]): 0.408 µM

SLPKTSGHY
IC50 (HLA-A*01:01 [2]; [21]): 37.8 µM
IC50 (HLA-B*15:01 [12]): 4.02 µM
IC50 (HLA-A*11:01 [13]): ≥ 105 µM
IC50 (HLA-A*02:01 [3]; [21]): ≥ 368 µM
IC50 (HLA-A*24:02 [14]): 47.5 µM
IC50 (HLA-A*03:01 [15]): ≥ 91.7 µM

YMDDLYVGSD
IC50 (HLA-A*02:01 [16]; source organism: Human immunodeficiency virus 1): 8 µM

SLLDKIIGA
IC50 (HLA-A*02:01 [16]; source organism: Homo sapiens): 15 µM

MMYASWGVH
Kd (HLA-B*35:01): 2.68 µM
Kd (HLA-B*15:01 [1]; [22]): 0.0082 µM
Kd (HLA-B*15:02; [23]): 0.003 µM
Kd (HLA-B*46:01; [22]): 3.76 µM
Kd (HLA-B*07:02; [23]): ≥ 20 µM

— the Immune Epitope Database (IEDB)
